The values below come from patent US20230374114A1 (Dana-Farber, published 2023).

The target of this experiment is WT Spike (SARS-CoV-2, UniProt P0DTC2 16-1213).

Residue numbers refer to the chain shown, from its start.

The term Kd denotes the concentration at which binding is half-saturated. Low readings indicate a tighter complex, high ones a looser complex.

B1: Ab 20 (scFv, V domains shown)
VH: QVQLVQSGGGSVKPGGSLRLSCAASGYRLSDYYMHWVRQAPGKGLEWVANIKQDGSEKYYVDSVKGRFTISRDNAKNSLYLQMNSLRAEDTAVYYCARVRGWSRGYFDYWGQGTLVTVSS
VL: NFMLTQPHSVSESPGKTVTISCTGSSGSIASNYVQWYQQRPGSAPTTVIYEDNQRPSGVPDRFSGSIDSSSNSASLLISGLKTEDEADYYCQSYDSSNHWVFGGGTKLTVL
As for B1, the affinity, expressed as Kd, was 9.01 pM.

B2: S1-RBD-R3-T1-B12 Ab (Ab_31) (scFv, V domains shown)
VH: QVQLVQSGAEVKKPGSSVKVSCKASGGTFSSYTISWVRQAPGQGLEWMGGIIPILGTPNYAQKFQDRVAITADKSTSTAYMELSSLRSEDTAVYYCAVGSGWYSGFDYWGQGTLVTVSS
VL: B1 VL with N53S, L77T, Y94F, D95H, S96N, H99P, W100V, V101I
In the case of B2, the Kd is less than 1 pM.

B3: Ab 25 (scFv, V domains shown)
VH: QVQLVQSGGGLVQPGGSLRLSCAASGFTFSSYWMSWVRQAPGKGLEWVANIKQDGSEKYYVDSVKGRFTISRDNAKNSLYLQMNSLRAEDTAVYYCARGFYYYGAFDIWGQGTTVTVSS
VL: B1 VL with D68G, L77T
The molecule B3 showed a Kd of 8.9 pM.

B4: Ab 28 (scFv, V domains shown)
VH: QVTLKESGPGLVNPSETLSLTCTVSGASISNSFWSWIRQSPGKGLEWIGYTSYSGNSIYNPSLKSRLTMSIDTSKNQLSLNLRSLTAADTAVYYCARREWIKGHFDYWGQGTLVTVSS
VL: B1 VL with S26G, L77T, H99P, W100V
For the molecule B4, the Kd is 8.9 pM.

B5: Ab 26 (scFv, V domains shown)
VH: QVQLVQSGGGLVQPGRSLRLSCAASGFTFDDYAMHWVRQVPGKGLEWVSGIDWNSGVIGYADSVKGRFTISRDNAKNSLYLQMNSLRAEDTALYYCAKDAYSYGFLGAFDIWGQGTMVTVSS
VL: LPVLTQPPSVSVAPGQTASITCGGDNIRTKGVHWYQQKPGQAPLLVIYYASDRPSGIPERFSGSSSGNTATLTISRVEAGDEADYYCQVWDSSSDLVVFGGGTTLTVL
Molecule B5 returned a Kd of 11 pM.

B6: Ab_17 (scFv, V domains shown)
VH: QVQLVQSGGGVVQPGRSLRLSCAASGFTFDDYAMHWVRQVPGKGLEWVSGIDWNSGVIGYADSVKGRFTISRDNVKNSLYLQMNSLRTEDSALYYCAKDIGPGGSGSYYAFDIWGQGTTVTVSS
VL: QSALTQPASVSGSPGQSITISCTGTSSDVGGSKYVSWYQQHPGKAPKVMIYDVTKRPSGVPDRFSGSKSGNTASLTISGLQAEDEADYYCAAWDDSLNGVVFGGGTKLTVL
On to B6, for which the Kd came out at 6.35 pM.

B7: Ab 21 (scFv, V domains shown)
VH: QVQLVQSGGGLVQPGGSLRLSCATSGFTFDDYAMHWVRQAPGKGLEWVSGISWNSGSIGYVDSVKGRFTISRDNRNNKVYLQMNNLRAEDTAVYYCARDWWGSIDHWGLGTLVTVSS
VL: QSALTQPRSVSGSPGQSVTISCTGTSSDVGGYDYVSWYQQHPGKAPKLIIYDVSKRPSGVPDRFSGSKSGNTASLTVSGLQAEDEADYYCSSYTSSSPVVFGGGTKLTVL
Take B7: the affinity, expressed as Kd, was 9.25 pM.

B8: Ab 23 (scFv, V domains shown)
VH: EVQLVQSGAEVKKPGSSVKVSCRSSGGTFSTYGITWVRQAPGQGLEWMGRIIPSLGIPNYAQKFQGRVTITADTSVSTAWMELSSLESDDTAIYYCARENIDLATNDFWGQGTLVTVSS
VL: QSALTQPPSASGSPGQSVTISCTGTSRDIGAYGYVSWYQQVPGKAPKLIIYEVRNRPSGVSSRFSGSKSGNTASLTISGLQAEDEADYYCSSYTSSSTLDVVFGGGTKLTVL
Regarding B8, the Kd came to 8.84 pM.

B9: Ab_14 (scFv, V domains shown)
VH: QVQLQQSGPGLVKPSQTLSLTCAISGDSVSSNSAAWNWIRQSPARGLEWLGRTYYRSRWYNDYAISMKSRITINPDTSKNQFSLQLESVTPEDTAVYYCAREIRGFDYWGQGTLVTVSS
VL: QSVLTQPPSASGSPGQSVTISCTGTSSDVGAYNFVSWYQHHPGKAPKLIIYDFNKRPSGVPDRFSGSKSGNTASLTVSGLQADDEADYYCSSYAGSNNFDVVFGGGTKLTVL
For the molecule B9, the dissociation constant (Kd) is 8.22 pM.

B10: Ab_18 (scFv, V domains shown)
VH: EVQLVQSGGGVVQPGRSLRVSCAASGFSFSRYGMHWVRQAPGKGLEWVAFIRHDGSKKYYADSVEGRFTISRDNSRNTVSLEMNSLRGEDTAVYYCAKDGRLEAALDDWGQGTLVTVSS
VL: NFMLTQPHSMSGSAGKTVTVSCIRSSGSIANNFVQWYQQRPGSAPTTVIYEDNQRPSGVPDRFSGSIDSSSNSASLTISGLKTEDEADYYCQSYDSSNLVFGGGTRLTVL
Take B10: binding was put at a Kd of 9.07 pM. The Kd values of the last two molecules are within 1.5-fold of each other.

B11: RBD-R3-E1-A5 Ab (Ab_30) (scFv, V domains shown)
VH: QVQLVQSGGGVVQPGKSLRLSCTASGFTFSDFPIHWVRQAPGKGLEWVGVISYDGNIKYYGDSVKGRFTISRDNAKNSLYLQMNSLRVEDTAVYYCARGGSSFDIWGQGTTVTVSS
VL: SYELTQPPSVSEAPRQRVTISCSGSTSNIGNNAVSWYQHLPGKAPKLLIYYNERLPSGVSDRFSGSKSGTSASLAISGLRSEDEADYYCAAWDDSLSGHVVFGGGTKLTVL
In the case of B11, the affinity, expressed as Kd, was 1.02 pM.

B12: Ab 27 (scFv, V domains shown)
VH: QVQLVQSGTEVKKPGASVKVSCKASGYSFTGSHLHWVRQAPGQGLEWMGWINPDSGVINYAQKFQGRVTLTRDTSISTAYMELSGLRSDDTAVYYCARDKAIGYVWALDYWGQGTLVTVSS
VL: QSALTQPPSVSGSPGQSVTISCTGTSSDVGTYNRVSWYQQPPGKAPKLMIYEVSNRPSGVSNRFSGSKSGNTASLTISGLQAEDEADYYCSSYTRTFTYVFGTGTKVTVL
For B12, the Kd was determined as 8.78 pM.

B13: Ab_16 (scFv, V domains shown)
VH: QVQLVQSGGGVVQPGRSLRLSCAASGFTFSNYGMHWVRQAPGKGLEWVALIWERGSKKDYADSVKGRFTVSRDNSKNTLYLQMNSLRPEDTAVYFCAREGISMTGAEYFQHWGQGTLVTVSS
VL: QSVLTQPPSVSGSPGQRVTMSCTGSSSNIGAGYDVHWYQQVPGAAPRLLIYGTNNRPSGVPDRFSGSKSGTSASLTITGLQAEDEADYYCQSYDNSLTDPYVFGTGTKVTVL
In the case of B13, the Kd turned out to be 11.8 pM.

B14: Ab_19 (scFv, V domains shown)
VH: EVQLVESGAEVKKPGESLKISCKGSGYSFTSYWIGWVRQMPGKGLEWMGIIYPGDSDTRYSPSFQGQVTISADKSISTAYLQWSSLKASDTAMYYCARRGDLDAFDIWGQGTMVTVSS
VL: QPGLTQPPAASGTPGQRVTVSCSGASANIGSNAVSWFKQFPETAPRLLISGNTHRPSGVPDRVSGSKSGTSASLTISGLQSDDEADYYCAAWDDSLNGYVFGSGTKVTVL
B14: binding was put at a Kd of 8.9 pM.

B15: S1-RBD-R3-T1-C7 Ab (Ab 29) (scFv, V domains shown)
VH: QVQLQQSGPGLVKPSQTLSLTCAISGDSVSSYSDAWNWIRQSPSRGLEWLGRTYYRSKWYNDYAVSVKSRITINPDTSKNQFSLQLSSVTPEDTAVYYCAREIVATTPFRNYYYGMDVWGQGTTVTVSS
VL: NFMLTQPHSVSESPGNTVTISCTRTSGSIASNYVQWYQQRPGSSPTTVIFQDKLRPSGVPDRFSGSIDSSSNSASLTISGLKTEDEADYYCQSYDSSSLWVFGGGTKLTVL
For B15, the Kd was 149 pM.
